Data published in article PMC6210734, “Unliganded Progesterone Receptor Governs Estrogen Receptor Gene Expression by Regulating DNA Methylation in Breast Cancer Cells”.

B1: PRE no CpG (dsDNA)
DNA 1: GTTGAGTCAGAACAGTTTGTTCTCTAGGCAC
DNA 2: GTGCCTAGAGAACAAACTGTTCTGACTCAAC
B2: PRE two CpGs, unmethylated (dsDNA)
DNA 1: GTTGAGTCAGAACGGTTCGTTCTCTAGGCAC
DNA 2: GTGCCTAGAGAACGAACCGTTCTGACTCAAC

Columns and labels:
[1] = target: T1, Progesterone receptor isoform B (PR-B) (Homo sapiens, UniProt P06401 1-933); test: EMSA; EMSA: 20 min at room temperature, 5% acrylamide-bisacrylamide gel; buffer, salt and pH not stated; details: protein: recombinant; chain copies: 2; (radioactive); blunt
[2] = target: T1, Progesterone receptor isoform B (PR-B); test: competition; 100-fold unlabeled competitor vs labeled no-CpG PRE, 2.4 ug PR-B; high-affinity competitor; EMSA: 20 min at room temperature, 5% acrylamide-bisacrylamide gel; buffer, salt and pH not stated; details: protein: recombinant; chain copies: 2; (radioactive); blunt

T1 sequence (P06401 whole entry, canonical isoform): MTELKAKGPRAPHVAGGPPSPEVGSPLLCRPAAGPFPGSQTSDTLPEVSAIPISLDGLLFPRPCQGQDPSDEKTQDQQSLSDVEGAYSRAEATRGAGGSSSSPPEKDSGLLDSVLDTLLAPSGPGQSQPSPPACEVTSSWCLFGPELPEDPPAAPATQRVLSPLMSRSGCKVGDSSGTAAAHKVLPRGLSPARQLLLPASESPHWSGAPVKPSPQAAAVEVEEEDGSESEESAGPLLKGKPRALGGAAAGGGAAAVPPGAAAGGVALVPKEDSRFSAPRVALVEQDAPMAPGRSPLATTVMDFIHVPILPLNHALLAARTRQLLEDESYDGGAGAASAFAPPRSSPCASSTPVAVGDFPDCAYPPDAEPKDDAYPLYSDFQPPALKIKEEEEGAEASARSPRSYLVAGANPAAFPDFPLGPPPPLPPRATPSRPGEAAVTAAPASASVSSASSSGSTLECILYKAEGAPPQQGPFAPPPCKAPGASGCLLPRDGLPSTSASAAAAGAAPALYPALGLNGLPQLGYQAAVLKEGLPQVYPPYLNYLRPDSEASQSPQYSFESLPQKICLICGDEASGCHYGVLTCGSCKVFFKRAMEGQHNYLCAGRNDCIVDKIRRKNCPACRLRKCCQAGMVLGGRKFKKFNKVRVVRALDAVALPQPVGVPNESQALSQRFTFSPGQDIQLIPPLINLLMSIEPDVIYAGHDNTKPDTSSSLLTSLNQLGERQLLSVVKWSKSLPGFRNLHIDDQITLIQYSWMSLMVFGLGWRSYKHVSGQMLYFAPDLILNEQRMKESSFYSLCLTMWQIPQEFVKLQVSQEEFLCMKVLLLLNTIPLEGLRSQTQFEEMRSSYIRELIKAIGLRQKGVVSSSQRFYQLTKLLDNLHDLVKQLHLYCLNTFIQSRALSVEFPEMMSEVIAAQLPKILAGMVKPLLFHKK

Row | Binder | binding result [1] | binding result [2]
1 | B1 | binds | –
2 | B2 | – | binds
